Test results from patent publication US12679878B2, “CRF2 receptor agonists and their use in therapy” (SANOFI, priority 2020, dated 2026).
Starred links: 1 amine or outer side, 2 acyl side, 3 side chain; linkers in the order of their positions; H or OH if unused. Non-standard residues stand in square brackets, D forms with d. Groups on a side chain read outwards from the residue. No end group written: not given here. *: point of attachment. C18 diacid = O=C(O)CCCCCCCCCCCCCCCCC(=O)*; γGlu = O=C(O)[C@H](CCC(=O)[*:2])N[*:1]; Palmitoyl = CCCCCCCCCCCCCCCC(=O)*; AEEA = NCCOCCOCC(=O)O; Aib = CC(C)(N)C(=O)O

B1: SEQ ID NO: 68 (peptide)
peptide: IVLSLDVPIKLK([AEEA-AEEA-γGlu-C18 diacid])QILLEQERQKKQREQAETNKQILAQV-NH2
modifications: N-terminus assumed
SMILES: CC[C@H](C)[C@H](N)C(=O)N[C@H](C(=O)N[C@@H](CC(C)C)C(=O)N[C@@H](CO)C(=O)N[C@@H](CC(C)C)C(=O)N[C@@H](CC(=O)O)C(=O)N[C@H](C(=O)N1CCC[C@H]1C(=O)N[C@H](C(=O)N[C@@H](CCCCN)C(=O)N[C@@H](CC(C)C)C(=O)N[C@@H](CCCCNC(=O)COCCOCCNC(=O)COCCOCCNC(=O)CC[C@H](NC(=O)CCCCCCCCCCCCCCCCC(=O)O)C(=O)O)C(=O)N[C@@H](CCC(N)=O)C(=O)N[C@H](C(=O)N[C@@H](CC(C)C)C(=O)N[C@@H](CC(C)C)C(=O)N[C@@H](CCC(=O)O)C(=O)N[C@@H](CCC(N)=O)C(=O)N[C@@H](CCC(=O)O)C(=O)N[C@@H](CCCNC(=N)N)C(=O)N[C@@H](CCC(N)=O)C(=O)N[C@@H](CCCCN)C(=O)N[C@@H](CCCCN)C(=O)N[C@@H](CCC(N)=O)C(=O)N[C@@H](CCCNC(=N)N)C(=O)N[C@@H](CCC(=O)O)C(=O)N[C@@H](CCC(N)=O)C(=O)N[C@@H](C)C(=O)N[C@@H](CCC(=O)O)C(=O)N[C@H](C(=O)N[C@@H](CC(N)=O)C(=O)N[C@@H](CCCCN)C(=O)N[C@@H](CCC(N)=O)C(=O)N[C@H](C(=O)N[C@@H](CC(C)C)C(=O)N[C@@H](C)C(=O)N[C@@H](CCC(N)=O)C(=O)N[C@H](C(N)=O)C(C)C)[C@@H](C)CC)[C@@H](C)O)[C@@H](C)CC)[C@@H](C)CC)C(C)C)C(C)C
B2: SEQ ID NO: 70 (peptide)
peptide: IVLSLDVPIKLK([AEEA-AEEA-γGlu-C18 diacid])QILLEQERQKKQREQAETN[Aib]QILAQV-NH2
modifications: N-terminus assumed
SMILES: CC[C@H](C)[C@H](N)C(=O)N[C@H](C(=O)N[C@@H](CC(C)C)C(=O)N[C@@H](CO)C(=O)N[C@@H](CC(C)C)C(=O)N[C@@H](CC(=O)O)C(=O)N[C@H](C(=O)N1CCC[C@H]1C(=O)N[C@H](C(=O)N[C@@H](CCCCN)C(=O)N[C@@H](CC(C)C)C(=O)N[C@@H](CCCCNC(=O)COCCOCCNC(=O)COCCOCCNC(=O)CC[C@H](NC(=O)CCCCCCCCCCCCCCCCC(=O)O)C(=O)O)C(=O)N[C@@H](CCC(N)=O)C(=O)N[C@H](C(=O)N[C@@H](CC(C)C)C(=O)N[C@@H](CC(C)C)C(=O)N[C@@H](CCC(=O)O)C(=O)N[C@@H](CCC(N)=O)C(=O)N[C@@H](CCC(=O)O)C(=O)N[C@@H](CCCNC(=N)N)C(=O)N[C@@H](CCC(N)=O)C(=O)N[C@@H](CCCCN)C(=O)N[C@@H](CCCCN)C(=O)N[C@@H](CCC(N)=O)C(=O)N[C@@H](CCCNC(=N)N)C(=O)N[C@@H](CCC(=O)O)C(=O)N[C@@H](CCC(N)=O)C(=O)N[C@@H](C)C(=O)N[C@@H](CCC(=O)O)C(=O)N[C@H](C(=O)N[C@@H](CC(N)=O)C(=O)NC(C)(C)C(=O)N[C@@H](CCC(N)=O)C(=O)N[C@H](C(=O)N[C@@H](CC(C)C)C(=O)N[C@@H](C)C(=O)N[C@@H](CCC(N)=O)C(=O)N[C@H](C(N)=O)C(C)C)[C@@H](C)CC)[C@@H](C)O)[C@@H](C)CC)[C@@H](C)CC)C(C)C)C(C)C
B3: SEQ ID NO: 72 (peptide)
peptide: IVLSLDVPIKLK([AEEA-AEEA-γGlu-C18 diacid])QILLEQERQKKQRQQAETN[Aib]QILAQV-NH2
modifications: N-terminus assumed
SMILES: CC[C@H](C)[C@H](N)C(=O)N[C@H](C(=O)N[C@@H](CC(C)C)C(=O)N[C@@H](CO)C(=O)N[C@@H](CC(C)C)C(=O)N[C@@H](CC(=O)O)C(=O)N[C@H](C(=O)N1CCC[C@H]1C(=O)N[C@H](C(=O)N[C@@H](CCCCN)C(=O)N[C@@H](CC(C)C)C(=O)N[C@@H](CCCCNC(=O)COCCOCCNC(=O)COCCOCCNC(=O)CC[C@H](NC(=O)CCCCCCCCCCCCCCCCC(=O)O)C(=O)O)C(=O)N[C@@H](CCC(N)=O)C(=O)N[C@H](C(=O)N[C@@H](CC(C)C)C(=O)N[C@@H](CC(C)C)C(=O)N[C@@H](CCC(=O)O)C(=O)N[C@@H](CCC(N)=O)C(=O)N[C@@H](CCC(=O)O)C(=O)N[C@@H](CCCNC(=N)N)C(=O)N[C@@H](CCC(N)=O)C(=O)N[C@@H](CCCCN)C(=O)N[C@@H](CCCCN)C(=O)N[C@@H](CCC(N)=O)C(=O)N[C@@H](CCCNC(=N)N)C(=O)N[C@@H](CCC(N)=O)C(=O)N[C@@H](CCC(N)=O)C(=O)N[C@@H](C)C(=O)N[C@@H](CCC(=O)O)C(=O)N[C@H](C(=O)N[C@@H](CC(N)=O)C(=O)NC(C)(C)C(=O)N[C@@H](CCC(N)=O)C(=O)N[C@H](C(=O)N[C@@H](CC(C)C)C(=O)N[C@@H](C)C(=O)N[C@@H](CCC(N)=O)C(=O)N[C@H](C(N)=O)C(C)C)[C@@H](C)CC)[C@@H](C)O)[C@@H](C)CC)[C@@H](C)CC)C(C)C)C(C)C
B4: SEQ ID NO: 4 (peptide)
peptide: IVLSLDVPIGLK([γGlu-Palmitoyl])QKLLKQEKQEKEKQQAETNAKILAQV-NH2
modifications: N-terminus assumed
SMILES: CCCCCCCCCCCCCCCC(=O)N[C@@H](CCC(=O)NCCCC[C@H](NC(=O)[C@H](CC(C)C)NC(=O)CNC(=O)[C@@H](NC(=O)[C@@H]1CCCN1C(=O)[C@@H](NC(=O)[C@H](CC(=O)O)NC(=O)[C@H](CC(C)C)NC(=O)[C@H](CO)NC(=O)[C@H](CC(C)C)NC(=O)[C@@H](NC(=O)[C@@H](N)[C@@H](C)CC)C(C)C)C(C)C)[C@@H](C)CC)C(=O)N[C@@H](CCC(N)=O)C(=O)N[C@@H](CCCCN)C(=O)N[C@@H](CC(C)C)C(=O)N[C@@H](CC(C)C)C(=O)N[C@@H](CCCCN)C(=O)N[C@@H](CCC(N)=O)C(=O)N[C@@H](CCC(=O)O)C(=O)N[C@@H](CCCCN)C(=O)N[C@@H](CCC(N)=O)C(=O)N[C@@H](CCC(=O)O)C(=O)N[C@@H](CCCCN)C(=O)N[C@@H](CCC(=O)O)C(=O)N[C@@H](CCCCN)C(=O)N[C@@H](CCC(N)=O)C(=O)N[C@@H](CCC(N)=O)C(=O)N[C@@H](C)C(=O)N[C@@H](CCC(=O)O)C(=O)N[C@H](C(=O)N[C@@H](CC(N)=O)C(=O)N[C@@H](C)C(=O)N[C@@H](CCCCN)C(=O)N[C@H](C(=O)N[C@@H](CC(C)C)C(=O)N[C@@H](C)C(=O)N[C@@H](CCC(N)=O)C(=O)N[C@H](C(N)=O)C(C)C)[C@@H](C)CC)[C@@H](C)O)C(=O)O
B5: SEQ ID NO: 69 (peptide)
peptide: IVLSLDVPIKLK([AEEA-AEEA-γGlu-C18 diacid])K[Aib]LLEQERQKKQREQAETNKQILAQV-NH2
modifications: N-terminus assumed
SMILES: CC[C@H](C)[C@H](N)C(=O)N[C@H](C(=O)N[C@@H](CC(C)C)C(=O)N[C@@H](CO)C(=O)N[C@@H](CC(C)C)C(=O)N[C@@H](CC(=O)O)C(=O)N[C@H](C(=O)N1CCC[C@H]1C(=O)N[C@H](C(=O)N[C@@H](CCCCN)C(=O)N[C@@H](CC(C)C)C(=O)N[C@@H](CCCCNC(=O)COCCOCCNC(=O)COCCOCCNC(=O)CC[C@H](NC(=O)CCCCCCCCCCCCCCCCC(=O)O)C(=O)O)C(=O)N[C@@H](CCCCN)C(=O)NC(C)(C)C(=O)N[C@@H](CC(C)C)C(=O)N[C@@H](CC(C)C)C(=O)N[C@@H](CCC(=O)O)C(=O)N[C@@H](CCC(N)=O)C(=O)N[C@@H](CCC(=O)O)C(=O)N[C@@H](CCCNC(=N)N)C(=O)N[C@@H](CCC(N)=O)C(=O)N[C@@H](CCCCN)C(=O)N[C@@H](CCCCN)C(=O)N[C@@H](CCC(N)=O)C(=O)N[C@@H](CCCNC(=N)N)C(=O)N[C@@H](CCC(=O)O)C(=O)N[C@@H](CCC(N)=O)C(=O)N[C@@H](C)C(=O)N[C@@H](CCC(=O)O)C(=O)N[C@H](C(=O)N[C@@H](CC(N)=O)C(=O)N[C@@H](CCCCN)C(=O)N[C@@H](CCC(N)=O)C(=O)N[C@H](C(=O)N[C@@H](CC(C)C)C(=O)N[C@@H](C)C(=O)N[C@@H](CCC(N)=O)C(=O)N[C@H](C(N)=O)C(C)C)[C@@H](C)CC)[C@@H](C)O)[C@@H](C)CC)C(C)C)C(C)C
B6: SEQ ID NO: 71 (peptide)
peptide: IVLSLDVPIKLK([AEEA-AEEA-γGlu-C18 diacid])K[Aib]LLEQERQKKQREQAETN[Aib]QILAQV-NH2
modifications: N-terminus assumed
SMILES: CC[C@H](C)[C@H](N)C(=O)N[C@H](C(=O)N[C@@H](CC(C)C)C(=O)N[C@@H](CO)C(=O)N[C@@H](CC(C)C)C(=O)N[C@@H](CC(=O)O)C(=O)N[C@H](C(=O)N1CCC[C@H]1C(=O)N[C@H](C(=O)N[C@@H](CCCCN)C(=O)N[C@@H](CC(C)C)C(=O)N[C@@H](CCCCNC(=O)COCCOCCNC(=O)COCCOCCNC(=O)CC[C@H](NC(=O)CCCCCCCCCCCCCCCCC(=O)O)C(=O)O)C(=O)N[C@@H](CCCCN)C(=O)NC(C)(C)C(=O)N[C@@H](CC(C)C)C(=O)N[C@@H](CC(C)C)C(=O)N[C@@H](CCC(=O)O)C(=O)N[C@@H](CCC(N)=O)C(=O)N[C@@H](CCC(=O)O)C(=O)N[C@@H](CCCNC(=N)N)C(=O)N[C@@H](CCC(N)=O)C(=O)N[C@@H](CCCCN)C(=O)N[C@@H](CCCCN)C(=O)N[C@@H](CCC(N)=O)C(=O)N[C@@H](CCCNC(=N)N)C(=O)N[C@@H](CCC(=O)O)C(=O)N[C@@H](CCC(N)=O)C(=O)N[C@@H](C)C(=O)N[C@@H](CCC(=O)O)C(=O)N[C@H](C(=O)N[C@@H](CC(N)=O)C(=O)NC(C)(C)C(=O)N[C@@H](CCC(N)=O)C(=O)N[C@H](C(=O)N[C@@H](CC(C)C)C(=O)N[C@@H](C)C(=O)N[C@@H](CCC(N)=O)C(=O)N[C@H](C(N)=O)C(C)C)[C@@H](C)CC)[C@@H](C)O)[C@@H](C)CC)C(C)C)C(C)C

Molecular target: human corticotropin-releasing factor 2α (CRF2 α receptor) (human), Q13324
Test: cell-based or functional assay

Chain of human corticotropin-releasing factor 2α (CRF2 α receptor) (human), Q13324 (Q13324 20-411): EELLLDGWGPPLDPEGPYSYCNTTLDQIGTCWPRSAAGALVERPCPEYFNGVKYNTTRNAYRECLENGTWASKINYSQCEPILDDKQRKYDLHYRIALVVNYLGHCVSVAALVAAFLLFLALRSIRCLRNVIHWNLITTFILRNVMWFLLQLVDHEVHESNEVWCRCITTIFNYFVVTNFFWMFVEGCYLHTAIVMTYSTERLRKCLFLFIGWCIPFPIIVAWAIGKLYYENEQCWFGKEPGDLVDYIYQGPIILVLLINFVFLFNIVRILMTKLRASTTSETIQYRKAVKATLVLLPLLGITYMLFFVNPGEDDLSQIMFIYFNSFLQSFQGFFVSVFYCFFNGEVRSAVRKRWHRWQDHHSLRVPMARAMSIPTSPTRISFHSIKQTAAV

| Binder | EC50 [nM], 0% HSA [nM] |
| --- | --- |
| B1 | 0.2 |
| B2 | 0.91 |
| B3 | 0.65 |
| B4 | 0.04 |
| B5 | 0.61 |
| B6 | 3.15 |
